Test results as given in the supplement of paper PMC11908140.

B1: library; numbered along this chain (parent)
chain: MRKPRAAVGSGHRKQAASQEGRQKHAKNNSQAKPSACDGLARQPEEVVLQASVSSYHLFRDVAEVTAFRGSLLSWYDQEKRDLPWRRRAEDEMDLDRRAYAVWVSEVMLQQTQVATVINYYTGWMQKWPTLQDLASASLEEVNQLWAGLGYYSRGRRLQEGARKVVEELGGHMPRTAETLQQLLPGVGRYTAGAIASIAFGQATGVVDGNVARVLCRVRAIGADPSSTLVSQQLWGLAQQLVDPARPGDFNQAAMELGATVCTPQRPLCSQCPVESLCRARQRVEQEQLLASGSLSGSPDVEECAPNTGQCHLCLPPSEPWDQTLGVVNFPRKASRKPPREESSATCVLEQPGALGAQILLVQRPNSGLLAGLWEFPSVTWEPSEQLQRKALLQELQRWAGPLPATHLRHLGEVVHTFSHIKLTYQVYGLALEGQTPVTTVPPGARWLTQEEFHTAAVSTAMKKVFRVYQGQQPGTCMGSKRSQVSSPCSRKKPRMGQQVLDNFFRSHISTDAHSLNSAAQ

Variants of: B1
Test: 8OG:A repair function score (normalized; synonymous = 0, nonsense = -1) (normalized log-likelihood score); higher = more repair activity (WT-like)
Conditions: with 8OG:A DNA repair reporter (GFP) in HEK-293 MUTYH KO cells
Procedure, shortened: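 With 10 pg/ml doxycycline, MUTYH knockout HEK-293 cells carrying lentiviral MUTYH cDNA NNN codon-scan libraries were co-transfected with mCherry and an 8OG:A GFP repair reporter. Viable mCherry+ cells were sorted into GFP+ (repair) and GFP− bins at 72 h, three replicates per tile, and tile amplicons were sequenced. Per-tile Rosace fitness scores were then normalized into a repair function score anchored on synonymous and nonsense distributions. Medians were fixed at 0 for synonymous and -1 for nonsense, excluding variants under 300 counts per million at the start.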

Variant | 8OG:A repair function score
MRKPRAAVGSGHRKQAASQEGRQKHAKNNSQAKPSACDGLARQPEEVVLQASVSSYHLFRDVAEVTAFRGSLLSWYDQEKRDLPWRRRAEDEMDLDRRAYAVWVSEVMLQQTQVATVINYYTGWMQKWPTLQDLASASLEEVNQLWAGLGYYSRGRRLQEGARKVVEELGGHMPRTAETLQQLLPGVGRYTAGAIASIAFGQATGVVDGNVARVLCRVRAIGADPSSTLVSQQLWGLAQQLVDPARPGDFNQAAMELGATVCTPQRPLCSQCPVESLCRARQCVEQEQLLASGSLSGSPDVEECAPNTGQCHLCLPPSEPWDQTLGVVNFPRKASRKPPREESSATCVLEQPGALGAQILLVQRPNSGLLAGLWEFPSVTWEPSEQLQRKALLQELQRWAGPLPATHLRHLGEVVHTFSHIKLTYQVYGLALEGQTPVTTVPPGARWLTQEEFHTAAVSTAMKKVFRVYQGQQPGTCMGSKRSQVSSPCSRKKPRMGQQVLDNFFRSHISTDAHSLNSAAQ [R283C] | -0.167
MRKPRAAVGSGHRKQAASQEGRQKHAKNNSQAKPSACDGLARQPEEVVLQASVSSYHLFRDVAEVTAFRGSLLSWYDQEKRDLPWRRRAEDEMDLDRRAYAVWVSEVMLQQTQVATVINYYTGWMQKWPTLQDLASASLEEVNQLWAGLGYYSRGRRLQEGARKVVEELGGHMPRTAETLQQLLPGVGRYTAGAIASIAFGQATGVVDGNVARVLCRVRAIGADPSSTLVSQQLWGLAQQLVDPARPGDFNQAAMELGATVCTPQRPLCSQCPVESLCRARQKVEQEQLLASGSLSGSPDVEECAPNTGQCHLCLPPSEPWDQTLGVVNFPRKASRKPPREESSATCVLEQPGALGAQILLVQRPNSGLLAGLWEFPSVTWEPSEQLQRKALLQELQRWAGPLPATHLRHLGEVVHTFSHIKLTYQVYGLALEGQTPVTTVPPGARWLTQEEFHTAAVSTAMKKVFRVYQGQQPGTCMGSKRSQVSSPCSRKKPRMGQQVLDNFFRSHISTDAHSLNSAAQ [R283K] | -0.0478
MRKPRAAVGSGHRKQAASQEGRQKHAKNNSQAKPSACDGLARQPEEVVLQASVSSYHLFRDVAEVTAFRGSLLSWYDQEKRDLPWRRRAEDEMDLDRRAYAVWVSEVMLQQTQVATVINYYTGWMQKWPTLQDLASASLEEVNQLWAGLGYYSRGRRLQEGARKVVEELGGHMPRTAETLQQLLPGVGRYTAGAIASIAFGQATGVVDGNVARVLCRVRAIGADPSSTLVSQQLWGLAQQLVDPARPGDFNQAAMELGATVCTPQRPLCSQCPVESLCRARQFVEQEQLLASGSLSGSPDVEECAPNTGQCHLCLPPSEPWDQTLGVVNFPRKASRKPPREESSATCVLEQPGALGAQILLVQRPNSGLLAGLWEFPSVTWEPSEQLQRKALLQELQRWAGPLPATHLRHLGEVVHTFSHIKLTYQVYGLALEGQTPVTTVPPGARWLTQEEFHTAAVSTAMKKVFRVYQGQQPGTCMGSKRSQVSSPCSRKKPRMGQQVLDNFFRSHISTDAHSLNSAAQ [R283F] | -0.16
MRKPRAAVGSGHRKQAASQEGRQKHAKNNSQAKPSACDGLARQPEEVVLQASVSSYHLFRDVAEVTAFRGSLLSWYDQEKRDLPWRRRAEDEMDLDRRAYAVWVSEVMLQQTQVATVINYYTGWMQKWPTLQDLASASLEEVNQLWAGLGYYSRGRRLQEGARKVVEELGGHMPRTAETLQQLLPGVGRYTAGAIASIAFGQATGVVDGNVARVLCRVRAIGADPSSTLVSQQLWGLAQQLVDPARPGDFNQAAMELGATVCTPQRPLCSQCPVESLCRARQPVEQEQLLASGSLSGSPDVEECAPNTGQCHLCLPPSEPWDQTLGVVNFPRKASRKPPREESSATCVLEQPGALGAQILLVQRPNSGLLAGLWEFPSVTWEPSEQLQRKALLQELQRWAGPLPATHLRHLGEVVHTFSHIKLTYQVYGLALEGQTPVTTVPPGARWLTQEEFHTAAVSTAMKKVFRVYQGQQPGTCMGSKRSQVSSPCSRKKPRMGQQVLDNFFRSHISTDAHSLNSAAQ [R283P] | -0.625
MRKPRAAVGSGHRKQAASQEGRQKHAKNNSQAKPSACDGLARQPEEVVLQASVSSYHLFRDVAEVTAFRGSLLSWYDQEKRDLPWRRRAEDEMDLDRRAYAVWVSEVMLQQTQVATVINYYTGWMQKWPTLQDLASASLEEVNQLWAGLGYYSRGRRLQEGARKVVEELGGHMPRTAETLQQLLPGVGRYTAGAIASIAFGQATGVVDGNVARVLCRVRAIGADPSSTLVSQQLWGLAQQLVDPARPGDFNQAAMELGATVCTPQRPLCSQCPVESLCRARQNVEQEQLLASGSLSGSPDVEECAPNTGQCHLCLPPSEPWDQTLGVVNFPRKASRKPPREESSATCVLEQPGALGAQILLVQRPNSGLLAGLWEFPSVTWEPSEQLQRKALLQELQRWAGPLPATHLRHLGEVVHTFSHIKLTYQVYGLALEGQTPVTTVPPGARWLTQEEFHTAAVSTAMKKVFRVYQGQQPGTCMGSKRSQVSSPCSRKKPRMGQQVLDNFFRSHISTDAHSLNSAAQ [R283N] | -0.173
MRKPRAAVGSGHRKQAASQEGRQKHAKNNSQAKPSACDGLARQPEEVVLQASVSSYHLFRDVAEVTAFRGSLLSWYDQEKRDLPWRRRAEDEMDLDRRAYAVWVSEVMLQQTQVATVINYYTGWMQKWPTLQDLASASLEEVNQLWAGLGYYSRGRRLQEGARKVVEELGGHMPRTAETLQQLLPGVGRYTAGAIASIAFGQATGVVDGNVARVLCRVRAIGADPSSTLVSQQLWGLAQQLVDPARPGDFNQAAMELGATVCTPQRPLCSQCPVESLCRARQGVEQEQLLASGSLSGSPDVEECAPNTGQCHLCLPPSEPWDQTLGVVNFPRKASRKPPREESSATCVLEQPGALGAQILLVQRPNSGLLAGLWEFPSVTWEPSEQLQRKALLQELQRWAGPLPATHLRHLGEVVHTFSHIKLTYQVYGLALEGQTPVTTVPPGARWLTQEEFHTAAVSTAMKKVFRVYQGQQPGTCMGSKRSQVSSPCSRKKPRMGQQVLDNFFRSHISTDAHSLNSAAQ [R283G] | -0.364
MRKPRAAVGSGHRKQAASQEGRQKHAKNNSQAKPSACDGLARQPEEVVLQASVSSYHLFRDVAEVTAFRGSLLSWYDQEKRDLPWRRRAEDEMDLDRRAYAVWVSEVMLQQTQVATVINYYTGWMQKWPTLQDLASASLEEVNQLWAGLGYYSRGRRLQEGARKVVEELGGHMPRTAETLQQLLPGVGRYTAGAIASIAFGQATGVVDGNVARVLCRVRAIGADPSSTLVSQQLWGLAQQLVDPARPGDFNQAAMELGATVCTPQRPLCSQCPVESLCRARQDVEQEQLLASGSLSGSPDVEECAPNTGQCHLCLPPSEPWDQTLGVVNFPRKASRKPPREESSATCVLEQPGALGAQILLVQRPNSGLLAGLWEFPSVTWEPSEQLQRKALLQELQRWAGPLPATHLRHLGEVVHTFSHIKLTYQVYGLALEGQTPVTTVPPGARWLTQEEFHTAAVSTAMKKVFRVYQGQQPGTCMGSKRSQVSSPCSRKKPRMGQQVLDNFFRSHISTDAHSLNSAAQ [R283D] | -0.662
MRKPRAAVGSGHRKQAASQEGRQKHAKNNSQAKPSACDGLARQPEEVVLQASVSSYHLFRDVAEVTAFRGSLLSWYDQEKRDLPWRRRAEDEMDLDRRAYAVWVSEVMLQQTQVATVINYYTGWMQKWPTLQDLASASLEEVNQLWAGLGYYSRGRRLQEGARKVVEELGGHMPRTAETLQQLLPGVGRYTAGAIASIAFGQATGVVDGNVARVLCRVRAIGADPSSTLVSQQLWGLAQQLVDPARPGDFNQAAMELGATVCTPQRPLCSQCPVESLCRARQHVEQEQLLASGSLSGSPDVEECAPNTGQCHLCLPPSEPWDQTLGVVNFPRKASRKPPREESSATCVLEQPGALGAQILLVQRPNSGLLAGLWEFPSVTWEPSEQLQRKALLQELQRWAGPLPATHLRHLGEVVHTFSHIKLTYQVYGLALEGQTPVTTVPPGARWLTQEEFHTAAVSTAMKKVFRVYQGQQPGTCMGSKRSQVSSPCSRKKPRMGQQVLDNFFRSHISTDAHSLNSAAQ [R283H] | -0.102
MRKPRAAVGSGHRKQAASQEGRQKHAKNNSQAKPSACDGLARQPEEVVLQASVSSYHLFRDVAEVTAFRGSLLSWYDQEKRDLPWRRRAEDEMDLDRRAYAVWVSEVMLQQTQVATVINYYTGWMQKWPTLQDLASASLEEVNQLWAGLGYYSRGRRLQEGARKVVEELGGHMPRTAETLQQLLPGVGRYTAGAIASIAFGQATGVVDGNVARVLCRVRAIGADPSSTLVSQQLWGLAQQLVDPARPGDFNQAAMELGATVCTPQRPLCSQCPVESLCRARQLVEQEQLLASGSLSGSPDVEECAPNTGQCHLCLPPSEPWDQTLGVVNFPRKASRKPPREESSATCVLEQPGALGAQILLVQRPNSGLLAGLWEFPSVTWEPSEQLQRKALLQELQRWAGPLPATHLRHLGEVVHTFSHIKLTYQVYGLALEGQTPVTTVPPGARWLTQEEFHTAAVSTAMKKVFRVYQGQQPGTCMGSKRSQVSSPCSRKKPRMGQQVLDNFFRSHISTDAHSLNSAAQ [R283L] | -0.0781
MRKPRAAVGSGHRKQAASQEGRQKHAKNNSQAKPSACDGLARQPEEVVLQASVSSYHLFRDVAEVTAFRGSLLSWYDQEKRDLPWRRRAEDEMDLDRRAYAVWVSEVMLQQTQVATVINYYTGWMQKWPTLQDLASASLEEVNQLWAGLGYYSRGRRLQEGARKVVEELGGHMPRTAETLQQLLPGVGRYTAGAIASIAFGQATGVVDGNVARVLCRVRAIGADPSSTLVSQQLWGLAQQLVDPARPGDFNQAAMELGATVCTPQRPLCSQCPVESLCRARQMVEQEQLLASGSLSGSPDVEECAPNTGQCHLCLPPSEPWDQTLGVVNFPRKASRKPPREESSATCVLEQPGALGAQILLVQRPNSGLLAGLWEFPSVTWEPSEQLQRKALLQELQRWAGPLPATHLRHLGEVVHTFSHIKLTYQVYGLALEGQTPVTTVPPGARWLTQEEFHTAAVSTAMKKVFRVYQGQQPGTCMGSKRSQVSSPCSRKKPRMGQQVLDNFFRSHISTDAHSLNSAAQ [R283M] | -0.0516
MRKPRAAVGSGHRKQAASQEGRQKHAKNNSQAKPSACDGLARQPEEVVLQASVSSYHLFRDVAEVTAFRGSLLSWYDQEKRDLPWRRRAEDEMDLDRRAYAVWVSEVMLQQTQVATVINYYTGWMQKWPTLQDLASASLEEVNQLWAGLGYYSRGRRLQEGARKVVEELGGHMPRTAETLQQLLPGVGRYTAGAIASIAFGQATGVVDGNVARVLCRVRAIGADPSSTLVSQQLWGLAQQLVDPARPGDFNQAAMELGATVCTPQRPLCSQCPVESLCRARQIVEQEQLLASGSLSGSPDVEECAPNTGQCHLCLPPSEPWDQTLGVVNFPRKASRKPPREESSATCVLEQPGALGAQILLVQRPNSGLLAGLWEFPSVTWEPSEQLQRKALLQELQRWAGPLPATHLRHLGEVVHTFSHIKLTYQVYGLALEGQTPVTTVPPGARWLTQEEFHTAAVSTAMKKVFRVYQGQQPGTCMGSKRSQVSSPCSRKKPRMGQQVLDNFFRSHISTDAHSLNSAAQ [R283I] | -0.0881
MRKPRAAVGSGHRKQAASQEGRQKHAKNNSQAKPSACDGLARQPEEVVLQASVSSYHLFRDVAEVTAFRGSLLSWYDQEKRDLPWRRRAEDEMDLDRRAYAVWVSEVMLQQTQVATVINYYTGWMQKWPTLQDLASASLEEVNQLWAGLGYYSRGRRLQEGARKVVEELGGHMPRTAETLQQLLPGVGRYTAGAIASIAFGQATGVVDGNVARVLCRVRAIGADPSSTLVSQQLWGLAQQLVDPARPGDFNQAAMELGATVCTPQRPLCSQCPVESLCRARQEVEQEQLLASGSLSGSPDVEECAPNTGQCHLCLPPSEPWDQTLGVVNFPRKASRKPPREESSATCVLEQPGALGAQILLVQRPNSGLLAGLWEFPSVTWEPSEQLQRKALLQELQRWAGPLPATHLRHLGEVVHTFSHIKLTYQVYGLALEGQTPVTTVPPGARWLTQEEFHTAAVSTAMKKVFRVYQGQQPGTCMGSKRSQVSSPCSRKKPRMGQQVLDNFFRSHISTDAHSLNSAAQ [R283E] | -0.246
